# Measured values published in US20220273789A1.
# Target: human IgG (human)
# Assay: BLI Octet, construct on Ni-NTA sensor, hIgG in solution
Substance,Kd [nM],Response (nm),koff [s⁻¹],kon [M⁻¹ s⁻¹]
HSV2-gE_A246W P317F_gI (from UniProt P89475 21-416; P06764 21-256) (receptor),< 0.001,0.101,< 1e-07,6180
HSV2-gE_A246W P317K_gI (from UniProt P89475 21-416; P06764 21-256) (receptor),< 0.001,0.071,< 1e-07,6090
HSV2-gE_A246W P317S_gI (from UniProt P89475 21-416; P06764 21-256) (receptor),< 0.001,0.121,< 1e-07,3600
HSV2-gE_A246W R320D_gI (from UniProt P89475 21-416; P06764 21-256) (receptor),< 0.001,0.0712,< 1e-07,2260
HSV2-gE_A248G F322A_gI (from UniProt P89475 21-416; P06764 21-256) (receptor),270,0.559,0.00352,13100
HSV2-gE_A248G F322I_gI (from UniProt P89475 21-416; P06764 21-256) (receptor),465,0.373,0.00439,9450
HSV2-gE_A248G F322P_gI (from UniProt P89475 21-416; P06764 21-256) (receptor),320,0.497,0.00367,11500
HSV2-gE_A248G V340M_gI (from UniProt P89475 21-416; P06764 21-256) (receptor),571,0.452,0.0052,9110
HSV2-gE_A248G V340R_gI (from UniProt P89475 21-416; P06764 21-256) (receptor),8960,0.303,0.00461,514
HSV2-gE_A248G_gI (from UniProt P89475 21-416; P06764 21-256) (receptor),560,0.506,0.00551,9840
HSV2-gE_A248K F322A_gI (from UniProt P89475 21-416; P06764 21-256) (receptor),408,0.481,0.00397,9720
HSV2-gE_A248K F322I_gI (from UniProt P89475 21-416; P06764 21-256) (receptor),870,0.321,0.00525,6040
HSV2-gE_A248K F322P_gI (from UniProt P89475 21-416; P06764 21-256) (receptor),498,0.427,0.00461,9250
HSV2-gE_A248K V340M_gI (from UniProt P89475 21-416; P06764 21-256) (receptor),< 0.001,0.0007,< 1e-07,237
HSV2-gE_A248K V340R_gI (from UniProt P89475 21-416; P06764 21-256) (receptor),< 0.001,0.0449,< 1e-07,3040
HSV2-gE_A248K_gI (from UniProt P89475 21-416; P06764 21-256) (receptor),450,0.477,0.00499,11100
HSV2-gE_A248T F322I_gI (from UniProt P89475 21-416; P06764 21-256) (receptor),8850,0.184,0.00486,549
